The record followed here is patent publication US20230287125A1 (LEPU BIOPHARMA, published 2023).

What is called EC50 is the concentration needed to bring the measured effect to its halfway point. The low end stands for an effect from little substance, the high end for a need for much substance. In general, Kd refers to the concentration at which binding is half-saturated. As usually defined, the koff is the rate constant with which the complex falls apart. Low readings indicate slow dissociation, high ones fast dissociation. Broadly, the kon is a measure of how fast the partners come together. The low end stands for slow association, the high end for fast association. A word on the IC50: it is the point on the concentration scale where inhibition reaches its midpoint. Read a low IC50 as greater potency in that assay.

One assay concerns the target rat PD-L1 protein (rat, UniProt D4AE25 19-239). Description: ELISA, coated rat PD-L1. (In general: An ELISA detects its analyte on a solid surface through an enzyme-linked reagent.)
The next assay concerns the target cynomolgus PD-L1 protein (cynomolgus, UniProt G7PSE7 19-238). Nature of the assay: ELISA, coated cynomolgus PD-L1.
The target in assay [1] is T1, human PD-L1-his tag protein (human, UniProt Q9NZQ7 19-238).
T1 construct: also called human PD-L1-His protein; recombinant PD-L1 protein; not shown: his tag
T1 sequence (Q9NZQ7 19-238 limits assumed): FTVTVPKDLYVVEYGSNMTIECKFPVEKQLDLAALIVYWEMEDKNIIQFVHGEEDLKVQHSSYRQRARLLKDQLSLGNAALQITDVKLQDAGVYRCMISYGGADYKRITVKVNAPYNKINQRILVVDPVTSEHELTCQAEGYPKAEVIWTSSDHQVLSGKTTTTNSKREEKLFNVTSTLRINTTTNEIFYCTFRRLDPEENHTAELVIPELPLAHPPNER
Description: SPR (Biacore T200), mAb captured on Protein A chip, PD-L1-his injected. As for the experimental part: A serial dilution of human PD-L1-his tag protein was injected over captured antibody for 2 mins at a flow rate of 30 μl/min. The antigen was allowed to dissociate for 480-1500 s. All the experiment were carried out on a Biacore T200. Data analysis was carried out using Biacore T200 evaluation software.
(In general: In SPR one partner is held on a chip, and binding of the other changes the refractive index at the surface.)

Assay [2] addresses T2, human PD-L1 over-expressed on CHOK1 cells (human, UniProt Q9NZQ7 19-290).
T2 construct: whole, on cells; also called PDL1-CHOK1 cells
Description: flow cytometry (MFI) on PDL1-CHOK1 cells; upper right panel (with the Hu67F3G7 antibodies). As for the experimental part: To evaluate the antigen binding property, the humanized antibodies were analyzed for their binding to PD-L1 overexpressed on mammalian cells by FACS. Briefly, PDL1-CHOK1 cells were firstly incubated with 3-fold serious diluted humanized antibodies starting at 15 μg/ml at 4° C. for 40 mins. After washed by PBS, the Alexa Fluor® 647 AffiniPure Goat Anti-Human IgG (H+L) antibody was added to each well and incubated at 4° C. for 30 mins. The MFI of Alexa Fluor® 647 was evaluated by FACSCanto.
(In general: Flow cytometry measures light scatter and fluorescence of single cells or particles in a stream.)

For assay [3], the target named is T3, human PD-L1-Fc protein (human, UniProt Q9NZQ7 19-238).
T3 construct: coating antigen of the ELISAs; also called rhPD-L1-Fc; not shown: Fc
T3 sequence (Q9NZQ7 19-238 limits assumed): as above
Description: ELISA, antibody titrated on coated human PD-L1-Fc, OD 450nm; upper left panel (with Hu67F3G7-1 to -6). As for the experimental part:
(§1) To evaluate antigen binding activity, the humanized antibodies were subjected to ELISA test. Briefly, microtiter plates were coated with human PD-L1-Fc protein at 0.5 μg/ml in PBS, 100 μl/well at 4° C. overnight, then blocked with 200 μl/well of 1% BSA. Three-fold dilutions of humanized antibodies starting from 10 μg/ml were added to each well and incubated for 1 hour at 37° C. The plates were washed with PBS/Tween and then incubated with mouse-anti-human IgG Fab antibody conjugated with Horse Radish Peroxidase (HRP) for 1 hour at 37° C. After washing, the plates were developed with TMB substrate and analyzed by spectrophotometer at OD 450 nm.

Assay [4] concerns the target T3, human PD-L1-Fc protein. Description: ELISA, antibody titrated on coated human PD-L1-Fc, OD 450nm; upper right panel (with Hu67F3G7-7 to -12). As to the method: as §1
Assay [5] concerns the target T3, human PD-L1-Fc protein. Description: ELISA, antibody titrated on coated human PD-L1-Fc, OD 450nm; lower right panel (with Hu67F3G7-19 to -22). As to the method: as §1
In assay [6] the target is T3, human PD-L1-Fc protein. Description: receptor blocking ELISA: coated human PD-L1-Fc, blocked ligand biotin-labeled human PD-1-Fc (Bio-PD1), OD 450nm; panel with Hu67F3G7-22 [cont'd]. As to the method: (§2) Briefly, microtiter plates were coated with human PD-L1-Fc protein at 0.5 μg/ml in PBS, 100 μl/well at 4° C. overnight, then blocked with 150 μl/well of 1% BSA at 37° C. for 2 hours. […] The plates were washed with PBS/Tween and then incubated with Streptavidin-HRP for 10 mins at 37° C. After washing, the plates were developed with TMB substrate and analyzed by spectrophotometer at OD 450 nm.

The target of assay [7] is T3, human PD-L1-Fc protein. Description: receptor blocking ELISA: coated human PD-L1-Fc, blocked ligand biotin-labeled human CD80-Fc (Bio-CD80), OD 450nm; panel with Hu67F3G7-22 [cont'd]. As to the method:
as §2

The target in assay [8] is T3, human PD-L1-Fc protein. Nature of the assay: receptor blocking ELISA: coated human PD-L1-Fc, blocked ligand biotin-labeled human PD-1-Fc (Bio-PD1), OD 450nm; upper left panel (with Hu67F3G7-2). As to the method:
as §2

Assay [9] concerns the target T3, human PD-L1-Fc protein. Description: receptor blocking ELISA: coated human PD-L1-Fc, blocked ligand biotin-labeled human CD80-Fc (Bio-CD80), OD 450nm; middle left panel (with Hu67F3G7-5). As for the experimental part:
as §2

Assay [10] addresses T3, human PD-L1-Fc protein. Nature of the assay: receptor blocking ELISA: coated human PD-L1-Fc, blocked ligand biotin-labeled human CD80-Fc (Bio-CD80), OD 450nm; upper right panel (with Hu67F3G7-3). As to the method:
as §2

Assay [11] addresses T3, human PD-L1-Fc protein. Nature of the assay: receptor blocking ELISA: coated human PD-L1-Fc, blocked ligand biotin-labeled human CD80-Fc (Bio-CD80), OD 450nm; middle right panel (with Hu67F3G7-7). As for the experimental part: as §2
Assay [12] concerns the target T3, human PD-L1-Fc protein. Description: ELISA, antibody titrated on coated human PD-L1-Fc, OD 450nm; lower left panel (with Hu67F3G7-13 to -18); the table row is headed 'IC50' on the sheet although the curves rise. As to the method: as §1

cynomolgus PD-L1 protein, sequence (G7PSE7 entry or part of it): as the sequence (Q9NZQ7 19-238 limits assumed) above, with A33T, A34S, S62N, R68Q, Q82R, F173L, T185A, T192I, H215L counted along it
T2 sequence (Q9NZQ7 19-290): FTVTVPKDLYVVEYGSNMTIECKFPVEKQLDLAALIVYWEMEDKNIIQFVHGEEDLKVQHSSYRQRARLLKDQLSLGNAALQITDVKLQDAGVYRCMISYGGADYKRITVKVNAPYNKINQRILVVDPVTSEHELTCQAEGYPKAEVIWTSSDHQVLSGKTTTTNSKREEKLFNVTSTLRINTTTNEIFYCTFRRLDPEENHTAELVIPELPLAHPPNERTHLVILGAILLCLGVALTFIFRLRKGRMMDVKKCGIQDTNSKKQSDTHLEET
rat PD-L1 protein, sequence (D4AE25 entry or part of it limits assumed): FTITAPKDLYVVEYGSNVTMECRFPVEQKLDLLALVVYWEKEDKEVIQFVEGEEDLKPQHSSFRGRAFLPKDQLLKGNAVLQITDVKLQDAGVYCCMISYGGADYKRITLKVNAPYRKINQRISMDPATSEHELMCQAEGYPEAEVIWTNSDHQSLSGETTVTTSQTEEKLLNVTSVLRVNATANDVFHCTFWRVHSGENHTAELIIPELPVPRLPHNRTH

B1: 67F3G7 chimeric mAb (antibody, V domains shown)
VH: QVKLLQSGAALVKPGASVKMSCKASGYIFTDFWVSWVKQSHEKSLEWIGEIYPNSGVSRYNEKFKGRATMTVDKSTSTAYLELSRLTSEDSAIYYCTKYFGYTYWFGYWGQGTLVTVSS
VL: DTVLTQSPALAVSLGQRITISCRASKSVSTYMHWYQQRSGLQPKLLIYSASHLESGVPSRFSGSGSGTDFTLTIDPVEADDIANYYCQQSNELPVTFGSGTKLEIK
notes: chimeric mAb of the hybridoma clone; also called 67F3G7-chimera
For B1, the binding result with rat PD-L1 protein is recorded as “no binding (tested: dilutions starting from 10 µg/ml)”. For the same molecule, the EC50 amounted to 0.0068 µg/mL with cynomolgus PD-L1 protein; 0.0577 nM in [2]; 0.0141 µg/mL with human PD-L1-Fc protein [3]; 0.0129 µg/mL with human PD-L1-Fc protein [4]; 0.0147 µg/mL with human PD-L1-Fc protein [5]; 0.0157 µg/mL in the assay with human PD-L1-Fc protein [12]. Further, the Kd in assay [1] turned out to be 0.0244 nM. This molecule came in with a koff in assay [1] of 6.19e-05 s⁻¹. Also, in [1], the kon was found to be 2.54e+06 M⁻¹ s⁻¹. The IC50 with human PD-L1-Fc protein [6] was determined as 0.141 µg/mL; with human PD-L1-Fc protein [7], 0.293 µg/mL; in the assay with human PD-L1-Fc protein [8], 0.149 µg/mL; with human PD-L1-Fc protein [9], 0.274 µg/mL; with human PD-L1-Fc protein [10], 0.289 µg/mL; with human PD-L1-Fc protein [11], 0.283 µg/mL.
